Starred links: 1 amine or outer side, 2 acyl side, 3 side chain; linkers in the order of their positions; H or OH if unused. Positions of bridges follow the written chain, without caps; N, C: chain ends. Non-standard residues stand in square brackets, D forms with d. Primed or numbered codes have the meaning given here. (SO2MorphCH2)TriAzDap = (S)-2-amino-3-(4-((1,1-dioxidothiomorpholino)methyl)-1H-1,2,3-triazol-1-yl)propanoic acid, O=C([C@H](Cn1cc(CN2CCS(=O)(=O)CC2)nn1)N[*:1])[*:2]; (CH2Ppz)TriAzDap = (S)-2-amino-3-(4-(piperazin-1-ylmethyl)-1H-1,2,3-triazol-1-yl)propanoic acid, O=C([C@H](Cn1cc(CN2CCN([*:3])CC2)nn1)N[*:1])[*:2]; PyrS2″ = (S)-3-amino-1-((pent-4-en-1-yloxy)carbonyl)pyrrolidine-3-carboxylic acid (stapling residue), C=CCCCOC(=O)N1CC[C@@](N[*:1])(C(=O)[*:2])C1; (MorphCH2)TriAzDap = (S)-2-amino-3-(4-(morpholinomethyl)-1H-1,2,3-triazol-1-yl)propanoic acid, O=C([C@H](Cn1cc(CN2CCOCC2)nn1)N[*:1])[*:2]; B5(32) = 2-amino-2-(pent-4-en-1-yl)hept-6-enoic acid (bis-4-pentenylglycine, two alkene side chains), C=CCCCC(CCCC=C)(N[*:1])C(=O)[*:2]; B5(4) = 2,2-bis(4-pentenyl)glycine = 2-amino-2-(pent-4-en-1-yl)hept-6-enoic acid (stitching residue), C=CCCCC(CCCC=C)(N[*:1])C(=O)[*:2]; B5(5) = 2,2-bis(4-pentenyl)glycine, 2-amino-2-(pent-4-en-1-yl)hept-6-enoic acid (stitching residue), C=CCCCC(CCCC=C)(N[*:1])C(=O)[*:2]; TfeGA = (S)-2-amino-3-((carboxymethyl)(2,2,2-trifluoroethyl)amino)propanoic acid, O=C([C@H](CN(CC(=O)[*:3])CC(F)(F)F)N[*:1])[*:2]; PyrS2 = (S)-3-amino-1-((pent-4-en-1-yloxy)carbonyl)pyrrolidine-3-carboxylic acid, C=CCCCOC(=O)N1CC[C@@](N[*:1])(C(=O)[*:2])C1; PyrS = (S)-1-((allyloxy)carbonyl)-3-aminopyrrolidine-3-carboxylic acid, C=CCOC(=O)N1CC[C@@](N[*:1])(C(=O)[*:2])C1; MorphAsn = (S)-2-amino-4-morpholino-4-oxobutanoic acid, O=C(C[C@H](N[*:1])C(=O)[*:2])N1CCOCC1; B5(3) = 2,2-bis(4-pentenyl)glycine (stitching residue), C=CCCCC(CCCC=C)(N[*:1])C(=O)[*:2]; B5 = 2-amino-2-(pent-4-en-1-yl)hept-6-enoic acid, C=CCCCC(CCCC=C)(N[*:1])C(=O)[*:2]; B6 = 2-amino-2-(hex-5-en-1-yl)oct-7-enoic acid, C=CCCCCC(CCCCC=C)(N[*:1])C(=O)[*:2]; Me2Asn = listed as N4-methyl-L-asparagine, CNC(=O)C[C@H](N[*:1])C(=O)[*:2]; MeAsn = N4-methyl-L-asparagine, CNC(=O)C[C@H](N[*:1])C(=O)[*:2]; MeGln = N5-methyl-L-glutamine, CNC(=O)CC[C@H](N[*:1])C(=O)[*:2]; Phe(3-COOH) = N[C@@H](Cc1cccc(C(=O)O)c1)C(=O)O; Phe(2-CF3) = N[C@@H](Cc1ccccc1C(F)(F)F)C(=O)O; Phe(4-Me) = Cc1ccc(C[C@H](N)C(=O)O)cc1; 2Nal = N[C@@H](Cc1ccc2ccccc2c1)C(=O)O; Phe(2-Me) = Cc1ccccc1C[C@H](N)C(=O)O; Bta = N[C@@H](Cc1csc2ccccc12)C(=O)O; αAllylPro = C=CC[C@@]1(C(=O)O)CCCN1; tBuAla = CC(C)(C)C[C@H](N)C(=O)O; 3Thi = N[C@@H](Cc1ccsc1)C(=O)O; Cha = N[C@@H](CC1CCCCC1)C(=O)O; S8 = C=CCCCCCC[C@](C)(N)C(=O)O; 4ClBztA = not defined here; hSer = N[C@@H](CCO)C(=O)O; Ac5c = NC1(C(=O)O)CCCC1; Ac3c = NC1(C(=O)O)CC1; Aib = CC(C)(N)C(=O)O
What follows are binders tested against full-length beta-Catenin (Uniprot ID P35222) (Homo sapiens (Human)) (UniProt P35222) (assay: fluorescence polarization competition; full-length beta-catenin, competitor probe 5FAM-TCF4(10-53)).
full-length beta-Catenin (Uniprot ID P35222) (Homo sapiens (Human)), sequence (P35222 whole entry): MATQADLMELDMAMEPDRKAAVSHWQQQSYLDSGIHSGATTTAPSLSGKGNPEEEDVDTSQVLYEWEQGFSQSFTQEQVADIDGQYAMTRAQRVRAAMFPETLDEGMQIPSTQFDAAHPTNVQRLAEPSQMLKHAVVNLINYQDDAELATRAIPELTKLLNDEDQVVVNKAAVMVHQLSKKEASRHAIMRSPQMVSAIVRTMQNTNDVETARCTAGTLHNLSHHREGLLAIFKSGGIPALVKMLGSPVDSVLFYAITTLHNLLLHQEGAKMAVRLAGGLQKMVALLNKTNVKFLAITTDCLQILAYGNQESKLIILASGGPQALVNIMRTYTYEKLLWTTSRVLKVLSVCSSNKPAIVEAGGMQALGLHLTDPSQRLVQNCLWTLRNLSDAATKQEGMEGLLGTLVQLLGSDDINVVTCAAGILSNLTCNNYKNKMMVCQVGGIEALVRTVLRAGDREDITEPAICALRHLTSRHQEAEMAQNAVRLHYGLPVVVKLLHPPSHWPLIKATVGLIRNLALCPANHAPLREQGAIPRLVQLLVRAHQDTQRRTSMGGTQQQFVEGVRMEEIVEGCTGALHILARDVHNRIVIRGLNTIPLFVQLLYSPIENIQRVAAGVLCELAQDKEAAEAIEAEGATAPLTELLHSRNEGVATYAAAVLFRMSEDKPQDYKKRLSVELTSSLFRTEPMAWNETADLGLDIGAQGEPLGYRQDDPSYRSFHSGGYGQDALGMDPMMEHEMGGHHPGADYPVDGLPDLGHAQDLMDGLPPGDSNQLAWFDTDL

| Binder | IC50 [nM] |
| --- | --- |
| Ac-[αAllylPro]D[tBuAla][B5(4)]D[Phe(3-COOH)]AAFL[PyrS2][3Thi][Bta]NALALA-NH2 (staple 1-4, 4-11; also: earlier eluting staple isomer) [I-2281] | 138 |
| Ac-[αAllylPro]D[tBuAla][B5(3)]D[Phe(3-COOH)]AAFL[PyrS2″][3Thi][Bta]NAAAAAAA-NH2 (staple 1-4, 4-11) [I-2269] | 20 |
| Ac-[αAllylPro]D[tBuAla][B5(32)]D[Phe(3-COOH)]AAFL[PyrS2][3Thi][Bta]NLLL-NH2 (staple 1-4, 4-11; also: earlier eluting staple isomer (HPLC peak)) [I-2275] | 117 |
| Ac-[αAllylPro]D[tBuAla][B5(3)]D[Phe(3-COOH)]AAFL[PyrS2″][3Thi][Bta]NA[Aib]A[Aib]A[Aib]A-NH2 (staple 1-4, 4-11) [I-2273] | 107 |
| Ac-[αAllylPro]D[tBuAla][B5(32)]D[Phe(3-COOH)]AAFL[PyrS2][3Thi][Bta]NLLL-NH2 (staple 1-4, 4-11; also: later eluting staple isomer (HPLC peak)) [I-2276] | 158 |
| Ac-[αAllylPro]D[tBuAla][B5(32)]D[Phe(3-COOH)]AAFL[PyrS2][3Thi][Bta]NALL-NH2 (staple 1-4, 4-11; also: earlier eluting staple isomer) [I-2277] | 114 |

The next lines start with the values.

| IC50 [nM] | Binder |
| --- | --- |
| 43 | Ac-[αAllylPro]D[tBuAla][B5(3)]D[Phe(3-COOH)]AAFL[PyrS2″][3Thi][Bta]NA[Aib]A[Aib]A-NH2 (staple 1-4, 4-11) [I-2272] |
| 120 | Ac-[αAllylPro]D[tBuAla][B5(32)]D[Phe(3-COOH)]AAFL[PyrS2][3Thi][Bta]NALL-NH2 (staple 1-4, 4-11; also: later eluting staple isomer) [I-2278] |
| 40 | Ac-[αAllylPro]D[tBuAla][B5(3)]D[Phe(3-COOH)]AAFL[PyrS2″][3Thi][Bta]NAAAAAAAAA-NH2 (staple 1-4, 4-11) [I-2270] |
| 10 | Ac-[αAllylPro]D[tBuAla][B5(3)]D[Phe(3-COOH)]AAFL[PyrS2″][3Thi][Bta]NL-NH2 (staple 1-4, 4-11) [I-2274] |
| 156 | Ac-[αAllylPro]D[tBuAla][B5(4)]D[Phe(3-COOH)]AAFL[PyrS2][3Thi][Bta]NALALA-NH2 (staple 1-4, 4-11; also: later eluting staple isomer) [I-2282] |

Each binder was assayed against full-length beta-Catenin (Uniprot ID P35222) (Homo sapiens (Human)) (UniProt P35222) (assay: fluorescence polarization competition; 10 nM full-length beta-catenin, competitor 10 nM 5FAM-TCF4(10-53)).

| Binder | IC50 [nM] | EC50 [nM] |
| --- | --- | --- |
| Ac-[αAllylPro]D[tBuAla][B5(5)]D[TfeGA]AA[(CH2Ppz)TriAzDap]L[PyrS2″][3Thi][Bta]Q-NH2 (staple 1-4, 4-11; also: separately listed staple isomer composition) [I-1857] | 4020 | – |
| Ac-[αAllylPro]D[tBuAla][B6]D[Phe(3-COOH)]QAFL[PyrS][Phe(2-CF3)][Bta]A-NH2 (staple 1-4, 4-11; also: earlier-eluting staple isomer composition) [I-2506] | 332 | – |
| Ac-[αAllylPro]D[tBuAla][B5(4)]D[Phe(3-COOH)]QAFL[PyrS2″][Phe(2-CF3)][4ClBztA]A-NH2 (staple 1-4, 4-11; reading uncertain) [I-2491] | 49 | – |
| Ac-[αAllylPro]D[tBuAla][B5]NT[Aib]AF[MeAsn][PyrS2][3Thi][Bta]N-NH2 (staple 1-4, 4-11) [I-2497] | 105 | – |
| Ac-[αAllylPro]DA[B5(4)]DDAAFA[S8][Phe(2-Me)][Bta]Q-NH2 (staple 1-4, 4-11) [I-367] | – | 177 |
| Ac-[αAllylPro]D[tBuAla][B5(5)]D[TfeGA]AA[(MorphCH2)TriAzDap]L[PyrS2″][3Thi][Bta]Q-NH2 (staple 1-4, 4-11; also: separately listed staple isomer composition) [I-1859] | 1110 | – |
| Ac-[αAllylPro]D[tBuAla][B5(5)]D[TfeGA]AA[(MorphCH2)TriAzDap]L[PyrS2″][3Thi][Bta]Q-NH2 (staple 1-4, 4-11; also: separately listed staple isomer composition) [I-1858] | 1110 | – |
| Ac-[αAllylPro]N[Cha][B5]DQ[Me2Gln]AFL[PyrS2]F[Bta][MorphAsn]-NH2 (staple 1-4, 4-11) [I-2501] | 154 | – |
| Ac-[αAllylPro]DA[B5(4)]DDAA[Phe(2-Me)]A[S8]F[Bta]Q-NH2 (staple 1-4, 4-11; also: earlier-eluting staple isomer) [I-365] | – | 2720 |
| Ac-[αAllylPro]N[Cha][B5]DQ[MeGln]AFL[PyrS2]F[Bta][MorphAsn]-NH2 (staple 1-4, 4-11) [I-2502] | 214 | – |
| Ac-[αAllylPro]D[tBuAla][B5(4)]NT[Ac3c]AFN[PyrS2″][3Thi][Bta]Q-NH2 (staple 1-4, 4-11) [I-2492] | 174 | – |

Second part, the binder after the results:

| IC50 [nM] | EC50 [nM] | Binder |
| --- | --- | --- |
| 102 | – | Ac-[αAllylPro]D[tBuAla][B5]NT[Aib]AFN[PyrS2][3Thi][Bta][Me2Asn]-NH2 (staple 1-4, 4-11) [I-2494] |
| – | 1560 | Ac-[αAllylPro]DA[B5(4)]DDAA[2Nal]A[S8]F[Bta]Q-NH2 (staple 1-4, 4-11) [I-370] |
| 106 | – | Ac-[αAllylPro]D[tBuAla][B5]NT[Aib]AF[Me2Asn][PyrS2][3Thi][Bta]N-NH2 (staple 1-4, 4-11) [I-2496] |
| 512 | – | Ac-[αAllylPro]D[tBuAla][B5(5)]D[TfeGA]AA[(SO2MorphCH2)TriAzDap]L[PyrS2″][3Thi][Bta]Q-NH2 (staple 1-4, 4-11) [I-1860] |
| 36 | – | Ac-[αAllylPro]D[tBuAla][B5(4)]D[Phe(3-COOH)]QAFL[PyrS2″][Phe(2-CF3)][7ClBztA]A-NH2 (staple 1-4, 4-11) [I-2487] |
| 168 | – | Ac-[αAllylPro]D[tBuAla][B6]D[Phe(3-COOH)]QAFL[PyrS][Phe(2-CF3)][Bta]A-NH2 (staple 1-4, 4-11; also: later-eluting staple isomer composition) [I-2507] |
| 95 | – | Ac-[αAllylPro]D[tBuAla][B5]NT[Aib]AFN[PyrS2][3Thi][Bta][MeAsn]-NH2 (staple 1-4, 4-11) [I-2495] |
| 267 | – | Ac-[αAllylPro]D[tBuAla][B5(4)]NT[Ac5c]AFN[PyrS2″][3Thi][Bta]Q-NH2 (staple 1-4, 4-11) [I-2493] |
| 1310 | – | Ac-[αAllylPro]N[Cha][B5]DQTAFL[PyrS2]F[Bta][MorphAsn]-NH2 (staple 1-4, 4-11) [I-2503] |
| 210 | – | Ac-[αAllylPro]N[Cha][B5]DQQAFL[PyrS2]F[Bta][MorphAsn]-NH2 (staple 1-4, 4-11) [I-2504] |
| 29 | – | Ac-[αAllylPro]D[tBuAla][B5(4)]D[Phe(3-COOH)]QAFL[PyrS2″][Phe(2-CF3)][7FBztA]A-NH2 (staple 1-4, 4-11) [I-2489] |
| 449 | – | Ac-[αAllylPro]N[Cha][B5]DQ[hSer]AFL[PyrS2]F[Bta][MorphAsn]-NH2 (staple 1-4, 4-11) [I-2498] |
| – | 1440 | Ac-[αAllylPro]DA[B5(4)]DDAA[Phe(2-Me)]A[S8]F[Bta]Q-NH2 (staple 1-4, 4-11; also: later-eluting staple isomer) [I-366] |
| – | 2310 | Ac-[αAllylPro]DA[B5(4)]DDAAFA[S8][Phe(4-Me)][Bta]Q-NH2 (staple 1-4, 4-11) [I-369] |

These binders were tested against full-length beta-Catenin (Uniprot ID P35222) (Homo sapiens (Human)) (UniProt P35222) (assay: fluorescence polarization competition; peptide titrated against 10 nM full-length beta-catenin + 10 nM 5FAM-TCF4(10-53)).

| Binder | IC50 [nM] |
| --- | --- |
| Ac-[αAllylPro]DA[B5(4)]DDAAFA[S8][Phe(2-Me)][Bta]Q-NH2 (staple 1-4, 4-11) [I-367] | 177 |
| Ac-[αAllylPro]DA[B5(4)]DDAA[Phe(2-Me)]A[S8]F[Bta]Q-NH2 (staple 1-4, 4-11; also: earlier-eluting staple isomer) [I-365] | 2720 |

The next lines start with the values.

| IC50 [nM] | Binder |
| --- | --- |
| 1560 | Ac-[αAllylPro]DA[B5(4)]DDAA[2Nal]A[S8]F[Bta]Q-NH2 (staple 1-4, 4-11) [I-370] |
| 1440 | Ac-[αAllylPro]DA[B5(4)]DDAA[Phe(2-Me)]A[S8]F[Bta]Q-NH2 (staple 1-4, 4-11; also: later-eluting staple isomer) [I-366] |
| 2310 | Ac-[αAllylPro]DA[B5(4)]DDAAFA[S8][Phe(4-Me)][Bta]Q-NH2 (staple 1-4, 4-11) [I-369] |
